From publication PMC4612324, “Comparing the efficacy and neuroinflammatory potential of three anti-abeta antibodies” (Acta Neuropathologica, 2015)

Biological target: T1, Aβ 1-40 peptide (UniProt P05067 672-711)
T1 construct: amyloid beta peptide Aβ 1-40, cut product of the amyloid precursor protein (APP); the methods call it a bought peptide, the results a 'recombinant peptide'; also called recombinant peptide; immobilised Aβ; source: bought: America Peptide, Sunnyvale, CA
Assay: ELISA; Aβ1-40 peptide coated on Maxisorp plates (0.1 µg/ml, bicarbonate buffer pH 9.6); antibodies serially diluted in PBS/1 % BSA, 1 h at room temperature; detected with biotinylated anti-mouse IgG and streptavidin poly-HRP; relative affinity
Details: both partners purified

B1: mC2 (murine parent antibody of Crenezumab), recombinant with mouse IgG2a constant region (antibody, V domains shown)
VH: EVQLVESGGGLVQPGGSLKLSCAASGFTFSSYGMSWVRQTPDKRLELVASINSNGGSTYYPDSVKGRFTISRDNAKNTLYLQMSSLKSEDTAMYYCASGDYWGQGSTLTVSS
VL: DVVMTQTPLSLPVSLGDQASISCRSSQSLVYSNGDTYLHWYLQKPGQSPKLLIYKVSNRFSGVPDRFSGSGSGTDFTLKISRVEAEDLGVYFCSQSTHVPWTFGGGTKLEIKR
notes: heavy chain variable domain of mC2; mouse IgG2a heavy chain constant domain; light chain variable domain of mC2; mouse kappa light chain constant domain; mouse IgG2a, kappa; variable domain joined directly to the constant domain (synthetic genes); also called murine version of Crenezumab; Crenezumab-mC2; source: HEK293 6E cells, transient transfection (pTT5), purified from culture media …
EC50: 0.0174 nM
